# Values quoted from earlier work as cited in paper PMC8144458.
# Assays:
# Assay in all cases: NMR
# Conditions in all cases: HdeA without client protein
# Asp47 = Asp47 (UniProt position 68, KDKPEDAVLDV)
# Asp51 = Asp51 (UniProt position 72, EDAVLDVQGIA)
# Glu46 = Glu46 (UniProt position 67, NKDKPEDAVLD)
substance,measurement,setting,value
Acid stress chaperone HdeA (Escherichia coli),pKa,Asp47,4.14
same,pKa,Asp51,3.83
same,pKa,Glu46,4.07
